Laboratory results taken from PMC10020961, “Structural Elucidation of Ivermectin Binding to α7nAChR and the Induced Channel Desensitization” (ACS Chemical Neuroscience, 2023).

What was measured:
[1] = molecular target: full-length human α7 nicotinic acetylcholine receptor (human) (UniProt P36544); experiment: SEC; S200 10/300 column, 20 mM HEPES pH 7.4, 300 mM NaCl, 0.2% DPC or 0.1% LDAO; pentamer fraction isolated
[2] = molecular target: the molecule itself; experiment: NMR structure (NMR and ESR restraints with Rosetta comparative modelling); α7nAChR TMD + ICD in LDAO micelles, pH 4.7, 25 mM NaCl, 318 K, with ivermectin; fivefold symmetry applied in the calculations

Sequence of full-length human α7 nicotinic acetylcholine receptor (P36544 23-502 limits assumed): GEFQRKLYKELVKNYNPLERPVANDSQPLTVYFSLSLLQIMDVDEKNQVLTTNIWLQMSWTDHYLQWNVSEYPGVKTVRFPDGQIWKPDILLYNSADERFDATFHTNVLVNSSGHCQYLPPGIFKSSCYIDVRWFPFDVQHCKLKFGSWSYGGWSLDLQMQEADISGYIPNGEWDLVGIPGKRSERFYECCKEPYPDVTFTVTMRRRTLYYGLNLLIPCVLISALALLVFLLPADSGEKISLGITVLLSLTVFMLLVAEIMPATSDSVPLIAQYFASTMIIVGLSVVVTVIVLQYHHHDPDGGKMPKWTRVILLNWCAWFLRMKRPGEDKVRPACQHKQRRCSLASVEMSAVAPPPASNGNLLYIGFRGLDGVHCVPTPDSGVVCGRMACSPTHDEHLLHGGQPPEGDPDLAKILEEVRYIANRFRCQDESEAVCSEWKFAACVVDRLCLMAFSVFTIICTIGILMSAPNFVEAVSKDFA

Row | stoichiometry N [1] | Molecule | stoichiometry N [2]
1 | 5 | full-length human α7 nicotinic acetylcholine receptor (from UniProt P36544 23-502) | 
2 |  | human α7 nicotinic acetylcholine receptor construct containing the transmembrane and intracellular domains (α7nAChR TMD + ICD) (domain or fragment, α7 nicotinic acetylcholine receptor, human; construct with the transmembrane domain (TMD) and intracellular domain (ICD), without the extracellular domain; also called α7 TMD + ICD; α7 TMD-ICD; source: E. coli Rosetta 2(DE3) pLysS, purified (NiNTA, SEC pentamer fraction), in LDAO micelles) LYYGLNLLIPCVLISALALLVFLLPADSGEKISLGITVLLSLTVFMLLVAEIMPATSDSVPLIAQYFASTMIIVGLSVVVTVIVLQYHHHDPDGGKMPKWTRVILLNWCAWFLRMKRPGEDKVRPACQHKQRRCSLASVEMSAVAPPPASNGNLLYIGFRGLDGVHCVPTPDSGVVCGRMACSPTHDEHLLHGGQPPEGDPDLAKILEEVRYIANRFRCQDESEAVCSEWKFAACVVDRLCLMAFSVFTIICTIGILMSAPNFVE | 5
